According to the supplement of paper PMC10126150:
± gives the standard deviation of the averaged measurements.

System: ATP
Test: switch fluorescence ratio, 500 uM ATP over buffer (Cy3 cluster intensity, sum of 5 cycles each) (fold (ratio)); higher = stronger signal-on switching upon ATP binding; sequences stand for … in TCGTCGGCAGCGTCAGATGTGTATAAGAGACAGTTTTTTTTTTTTTTTTTTTTTTTTT…TC
Settings: aptamer strand: ATP DNA aptamer (quencher-CACCTGGGGGAGTATTGCGGAGGAAGG + anchor), 100 nM annealed; ATP concentration: 500 uM
Outline: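 After annealing to 100 nM quencher-labelled ATP aptamer, Cy3-labelled switching-strand clusters on a modified Illumina MiSeq flow-cell were imaged in selection buffer. A second image followed after 15 min with 500 uM ATP at 22 °C, and five such buffer/ATP cycles were done, each separated by NaOH stripping and re-annealing. The fluorescence ratio, averaged per switch-domain sequence, is summed target-cycle over summed buffer-cycle Cy3 intensity per cluster, with clusters outside 100-1000 RFU excluded.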
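Also: ATP exposure 15 min at 22 °C before imaging.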

Row | Sequence | switch fluorescence ratio
1 | GATATTTGCG | 1.015 ± 0.0024
2 | AGGAGGGCGT | 0.969 ± 0.018
3 | AGGGTAAACT | 1.27 ± 0.37
4 | TTTGGAAAAC | 0.9853 ± 0.0027
5 | CGCGAGGATG | 1.022 ± 0.0099
6 | ATTTTAAGTT | 0.99 ± 0.034
7 | GTTATTCTCT | 0.971 ± 0.015
8 | GAGTTAGTAG | 0.966 ± 0.02
9 | GGGGATTAAT | 0.99 ± 0.042
10 | TTTGCGCTTT | 1.1 ± 0.084
11 | CGGGGAATTG | 1 ± 0.014
12 | AGGCTTTGG | 0.999 ± 0.051
13 | CAGAGGAACT | 0.999 ± 0.035
14 | GCTTTTTGCT | 1.012 ± 0.0054
15 | TAATGGTTAG | 1.016 ± 0.0048
16 | GGATACGTTG | 1.02 ± 0.052
17 | TTTTGGGTTA | 0.992 ± 0.043
18 | GTGGACTTTG | 0.971 ± 0.053
19 | GTTGGATCCG | 0.984 ± 0.017
20 | TCAAATTAGC | 0.986 ± 0.023
21 | CAATTGGTAC | 1.05 ± 0.013
22 | GGGTGATGAA | 1 ± 0.045
23 | GCGAGGGATT | 1.02 ± 0.032

Row | Sequence | switch fluorescence ratio
24 | CAAAAGGGAG | 1.036 ± 0.01
25 | GTAGCGGCTG | 1.037 ± 0.01
26 | CCCATGTATC | 1.09 ± 0.011
27 | CGTCAATTAT | 1.14 ± 0.054
28 | CGGCGGGAGT | 1.019 ± 0.0073
29 | TGAAGGCGGG | 1 ± 0.039
30 | GGGTAGTAGT | 0.958 ± 0.035
31 | TGACGAAGCG | 1.05 ± 0.035
32 | TTATGGAGCA | 1.09 ± 0.09
33 | AGTTGTGGGC | 0.968 ± 0.018
34 | AAATACAAGG | 1.15 ± 0.24
35 | GGTGGGGGGA | 1.01 ± 0.063
36 | TTTTTTGTCG | 0.993 ± 0.053
37 | TTCCTTAGTC | 1.019 ± 0.0045
38 | GCAATGGTGG | 1.04 ± 0.035
39 | TGTGAGGCTA | 1.03 ± 0.012
40 | GGGGTATATT | 0.9938 ± 0.0062
41 | CCTTTTAGCG | 1.16 ± 0.055
42 | GCGTTTAATG | 0.977 ± 0.047
43 | GGGGAGTTAC | 1.35 ± 0.44
44 | AATATATTGA | 0.996 ± 0.02
45 | ATGGAAGGGT | 0.988 ± 0.052
46 | GGATTAACTA | 0.9887 ± 0.0061

Row | Sequence | switch fluorescence ratio
47 | TCGGGGGTAG | 0.985 ± 0.014
48 | GGAAGGAGAG | 0.986 ± 0.018
49 | GAGCAACGGA | 1.02 ± 0.031
50 | GAATTGATTT | 1.009 ± 0.0065
51 | GATACCTTCG | 2.614 ± 0.023
52 | CCGGTGCGTG | 1.13 ± 0.14
53 | AGTATGTGTC | 1.01 ± 0.042
54 | GGGGAAGTAC | 1.53 ± 0.31
55 | CATTGAAGAG | 0.998 ± 0.013
56 | ATTACTGGTG | 1.1 ± 0.019
57 | AAGGCCCTGA | 0.994 ± 0.012
58 | TTTGGGTTCA | 0.972 ± 0.026
59 | GATGTTTGGC | 1.05 ± 0.013
60 | CCATAGGGGG | 0.989 ± 0.025
61 | ATTCGTAGGG | 1.01 ± 0.012
62 | TCCTGGAGGA | 0.989 ± 0.05
63 | AATAGGAAGG | 1.01 ± 0.046
64 | AATTGGTGGG | 0.9916 ± 0.0084
65 | TTAACCTTTT | 1.36 ± 0.58
66 | CCGATTTATA | 1.013 ± 0.0052
67 | TCGGTTGTCT | 1.02 ± 0.052
68 | TTTTGTGTTC | 0.993 ± 0.027
69 | GAATGGGGGC | 0.98 ± 0.036

Row | Sequence | switch fluorescence ratio
70 | GGAGGGGATC | 0.998 ± 0.022
71 | CTGGGGGGGC | 1.01 ± 0.043
72 | ACGAAGGTCT | 0.998 ± 0.012
73 | GAGTTTTTTA | 0.98 ± 0.046
74 | CGGAGGAGGA | 0.993 ± 0.038
75 | TTCTGTGGGA | 1.002 ± 0.006
76 | ATTACGGAAC | 1.26 ± 0.018
77 | GGGTTCAGGG | 0.977 ± 0.02
78 | CAGCAGCTGG | 1.05 ± 0.034
79 | CACTAGAGTG | 1.021 ± 0.0063
80 | AGGGGTCTCT | 0.985 ± 0.013
81 | GGGGGCACTC | 0.986 ± 0.031
82 | GCTGGCAGCC | 1.01 ± 0.069
83 | ATCGCGGGGG | 1.009 ± 0.0021
84 | GGTTTCCCT | 0.973 ± 0.019
85 | AGAATCGAAG | 0.994 ± 0.0041
86 | TTTCACCGGG | 1.16 ± 0.17
87 | GAAAAAGGAG | 1 ± 0.018
88 | TCGAACTGAT | 1.02 ± 0.03
89 | TGCTGGAGGA | 1.038 ± 0.006
90 | CTAGTTTGGA | 1 ± 0.011
91 | GTTATGGTAC | 1.03 ± 0.028
92 | ATTATTTGTC | 1.01 ± 0.044

Row | Sequence | switch fluorescence ratio
93 | GACTCGAGGG | 0.99 ± 0.083
94 | GCGTCTGCGC | 0.943 ± 0.085
95 | GCTTAAGAGG | 1.03 ± 0.017
96 | CTAATCTAGC | 1.045 ± 0.0017
97 | TCAAAGTTTT | 1.01 ± 0.023
98 | TACGGATACA | 1.18 ± 0.048
99 | TTTAATTGTA | 1.01 ± 0.044
100 | GGTGTCTTCA | 1.06 ± 0.076
101 | TGGGGAGGGG | 0.991 ± 0.047
102 | TTATGGCAGA | 1.009 ± 0.01
103 | GTGTAAATTT | 0.991 ± 0.04
104 | CAATGTCTGG | 1.008 ± 0.0027
105 | GGGCGCGTTT | 0.9623 ± 0.0072
106 | TACAAGTTCT | 0.9814 ± 0.0042
107 | GACGCTCATG | 1.04 ± 0.033
108 | TTGTCATTTA | 0.992 ± 0.031
109 | GTTTTATGGG | 0.969 ± 0.038
110 | CGGTCACTG | 1.002 ± 0.0069
111 | TTGAATTTGA | 1 ± 0.028
112 | GAGCGGGATG | 0.986 ± 0.031
113 | ATGGACTGAA | 0.992 ± 0.013
114 | AGTGGTTATT | 0.989 ± 0.032
115 | TATGATAGGC | 0.953 ± 0.058

Row | Sequence | switch fluorescence ratio
116 | AAGATTATGG | 0.984 ± 0.035
117 | TCGAGATTAG | 0.9942 ± 0.0086
118 | ACGCATTCAA | 1.236 ± 0.0039
119 | GGGTTAAATT | 1.01 ± 0.038
120 | GGTGGGGCCC | 0.983 ± 0.032
121 | CCCCATTCCG | 1.04 ± 0.022
122 | CTGAGAGTAC | 1.05 ± 0.07
123 | CGGGGGGGTC | 1 ± 0.036
124 | GACGTATAG | 0.994 ± 0.022
125 | TGAGATGGTG | 0.9739 ± 0.0014
126 | TCGAGAGGGA | 1 ± 0.047
127 | AGTGGTGGTA | 0.998 ± 0.018
128 | TTTTATGTCA | 1.03 ± 0.051
129 | GGGTCTAGGT | 0.997 ± 0.03
130 | CGAGTATTTT | 1.024 ± 0.0022
131 | TTTTTTGGAT | 1.01 ± 0.022
132 | CATTGAGTTC | 0.978 ± 0.014
133 | AGTGCATTTT | 1.06 ± 0.097
134 | ATAAGAAACG | 0.946 ± 0.064
135 | GAATATGCCG | 0.972 ± 0.019
136 | TGTGGTTGGT | 1.01 ± 0.032
137 | GGATAAAAAT | 1.02 ± 0.025
138 | CTATGCGTTT | 0.989 ± 0.025

Row | Sequence | switch fluorescence ratio
139 | CAAGTGTATC | 1.02 ± 0.045
140 | TGGGATAGGC | 0.991 ± 0.032
141 | AAGTTTATTA | 0.964 ± 0.017
142 | TATATTTACC | 1.04 ± 0.044
143 | AATGGCCGGC | 0.987 ± 0.014
144 | ATGGTCGCGC | 0.993 ± 0.04
145 | GGGCGACGGG | 0.996 ± 0.046
146 | AAGCGTAGAT | 1.009 ± 0.0074
147 | TCGGGGGGA | 1.03 ± 0.034
148 | TGGATTGGGC | 0.973 ± 0.038
149 | ATTTGTCAAG | 0.999 ± 0.016
150 | GTTTGAAGGT | 1.01 ± 0.011
151 | TCGTGCAAGT | 1.05 ± 0.063
152 | TTGAGTGGGC | 0.979 ± 0.031
153 | AGGGGGCAGG | 1.01 ± 0.017
154 | ATTTGGAGTC | 1 ± 0.018
155 | ACACTAGGGG | 1.23 ± 0.17
156 | CGGATCGACT | 0.977 ± 0.02
157 | AGGGGGTAAG | 0.988 ± 0.028
